The text below walks through data of the supplement of paper PMC7877785.

The series can be described thus: self-splicing fitness, log relative to wild type (ln ratio); higher = more splicing; Tetrahymena group I intron in knt gene, E. coli kanamycin selection, DiMSum; sequences stand for … in CUCUCU…GGAGGGAAAAGUUAUCAGGCAUGCACCUGGUAGCUAGUCUUUAAACCAAUAGAUUGCAUCGGUUUAAAAGGCAAGACCGUCAAAUUGCGGGAAAGGGGUCAACAGCCGUUCAGUACCAAGUCUCAGGGGAAACUUUGAGAUGGCCUUGCAAAGGGUAUGGUAAUAAGCUGACGGACAUGGUCCUAACCACGCAGCCAAGUCCUAAGUCAACAGAUCUUCUGUUGAUAUGGAUGCAGUUCACAGACUAAAUGUCGGUCGGGGAAGAUGUAUUCUUCUCAUAAGAUAUAGUCGGACCUCUCCUUAAUGGGAGCUAGCGGAUGAAGUGAUGCAACACUGGAGCCGCUGGGAACUAAUUUGUAUGCGAAAGUAUAUUGAUUAGUUUUGGAGUACUCGUGGUCG
The gist of the method: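 A randomised library covering all eight P1ex-region intron nucleotides was built with the intron in the knt kanamycin-resistance gene on pET-22b(+) and held in E. coli BL21(DE3). Cells were grown overnight at 37°C or 30°C on LB agar, with or without 25 μg/mL kanamycin, plus 100 μg/mL carbenicillin, 50 μM IPTG and 0.2% rhamnose, and pooled colonies were amplicon-sequenced on an Illumina HiSeq 2500. DiMSum fitness is the error-weighted combination of wild-type-normalised replicate fold changes, kanamycin versus none.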

± gives the uncertainty stated by the source.

Regarding UCUUAGCAAUAUUACGUUAU, the “self-splicing fitness (ln)” value is -3.27 ± 0.28 (30 °C) and -2.3 ± 0.28 (37 °C).
For ACACAGCAAUAUUACGCCUA, the “self-splicing fitness (ln)” value was -0.959 ± 0.065 (30 °C) and -0.392 ± 0.067 (37 °C).
In the case of GAGGAGCAAUAUUACGUAAG, the “self-splicing fitness (ln)” value runs as follows: (30 °C) -3.04 ± 0.27; (37 °C) -2.13 ± 0.34.
On to CGGCAGCAAUAUUACGACUA, for which the “self-splicing fitness (ln)” value runs as follows: (30 °C) -0.68 ± 0.097; (37 °C) 0.0629 ± 0.12.
The corresponding values for CCUAAGCAAUAUUACGAGCU are -2.2 ± 0.33 and -1.93 ± 0.27.
On to CGAUAGCAAUAUUACGAACA, for which the “self-splicing fitness (ln)” value by setting is: (30 °C) -2.13 ± 0.47; (37 °C) -1.38 ± 0.27.
Regarding UUCGAGCAAUAUUACGUUUA, the “self-splicing fitness (ln)” value is, setting by setting: (30 °C) -2 ± 0.16; (37 °C) -1.54 ± 0.16.
In the case of ACAAAGCAAUAUUACGAAAG, the “self-splicing fitness (ln)” value by setting is: (30 °C) -1.59 ± 0.12; (37 °C) -1.32 ± 0.14.
For UUUCAGCAAUAUUACGAUAG, the “self-splicing fitness (ln)” value (30 °C) is -0.323 ± 0.088 and the “self-splicing fitness (ln)” value (37 °C) was -0.323 ± 0.11.
As for UGUCAGCAAUAUUACGCUAA, the “self-splicing fitness (ln)” value is -0.476 ± 0.071 (30 °C) and 0.355 ± 0.094 (37 °C).
For the sequence UACAAGCAAUAUUACGACAA, the “self-splicing fitness (ln)” value is -0.986 ± 0.11 (30 °C) and -0.403 ± 0.11 (37 °C).
In the case of UACAAGCAAUAUUACGAAGG, the “self-splicing fitness (ln)” value (30 °C) is -2.52 ± 0.11 and the “self-splicing fitness (ln)” value (37 °C) is -1.38 ± 0.12.
Regarding GCGGAGCAAUAUUACGUCCG, the “self-splicing fitness (ln)” value (30 °C) was -0.898 ± 0.32 and the “self-splicing fitness (ln)” value (37 °C) is -0.455 ± 0.25.
The matching figures for CAGGAGCAAUAUUACGUUAA: -3.28 ± 0.43 and -2.66 ± 0.26.
In the case of GGUGAGCAAUAUUACGGACG, the “self-splicing fitness (ln)” value is -0.0602 ± 0.16 (30 °C) and 0.806 ± 0.32 (37 °C).
As for GGUCAGCAAUAUUACGGGGG, the “self-splicing fitness (ln)” value (37 °C) is -2.15 ± 0.34.
In the case of UGGUAGCAAUAUUACGUCGC, the “self-splicing fitness (ln)” value runs as follows: (30 °C) -3.78 ± 0.21; (37 °C) -2.88 ± 0.19.
For CGCAAGCAAUAUUACGACCC, the “self-splicing fitness (ln)” value (30 °C) is -2.18 ± 0.3 and the “self-splicing fitness (ln)” value (37 °C) is 0.0863 ± 0.29.
The corresponding values for AUGGAGCAAUAUUACGCAGU are -3.57 ± 0.37 and -3.17 ± 0.37.
The corresponding values for AUUCAGCAAUAUUACGGCAA are -0.94 ± 0.083 and 0.292 ± 0.1.
AGAGAGCAAUAUUACGGAGA: under “37 °C”, the “self-splicing fitness (ln)” value was -2.11 ± 0.37.
On to AAGGAGCAAUAUUACGCACG, for which the “self-splicing fitness (ln)” value is -1.84 ± 0.43 (30 °C) and -0.01 ± 0.45 (37 °C).
The corresponding values for CGCGAGCAAUAUUACGUGGC are -2.53 ± 0.18 and -2.16 ± 0.18.
UGGGAGCAAUAUUACGCAUA: the “self-splicing fitness (ln)” value (30 °C) was -1.98 ± 0.27 and the “self-splicing fitness (ln)” value (37 °C) is -1.22 ± 0.22.
GGUCAGCAAUAUUACGACAC: the “self-splicing fitness (ln)” value was 0.184 ± 0.32 (30 °C) and -0.0653 ± 0.25 (37 °C).
The corresponding values for GACCAGCAAUAUUACGUAGU are -0.667 ± 0.061 and -0.248 ± 0.077.
As to CCUAAGCAAUAUUACGGACU, the “self-splicing fitness (ln)” value (30 °C) is -3.46 ± 0.35 and the “self-splicing fitness (ln)” value (37 °C) is -2.29 ± 0.36.
The matching figures for GCAUAGCAAUAUUACGCGUU: -2.03 ± 0.11 and -2.14 ± 0.17.
For the sequence UCGGAGCAAUAUUACGGCCG, under “30 °C”, the “self-splicing fitness (ln)” value was -1.49 ± 0.31.
As to UUUCAGCAAUAUUACGGACG, the “self-splicing fitness (ln)” value was -0.348 ± 0.18 (30 °C) and 0.598 ± 0.23 (37 °C).
As to CUGGAGCAAUAUUACGGCAG, the “self-splicing fitness (ln)” value runs as follows: (30 °C) -2.77 ± 0.15; (37 °C) -1.94 ± 0.16.
The corresponding values for UCCUAGCAAUAUUACGCAAC are -2.76 ± 0.21 and -3.38 ± 0.42.
GACCAGCAAUAUUACGGACG: the “self-splicing fitness (ln)” value amounted to 0.108 ± 0.075 (30 °C) and 0.272 ± 0.094 (37 °C).
The matching figures for ACAUAGCAAUAUUACGUGAU: -1.7 ± 0.061 and -1.2 ± 0.088.
For GAGAAGCAAUAUUACGUACC, the “self-splicing fitness (ln)” value is, setting by setting: (30 °C) -1.18 ± 0.23; (37 °C) -0.414 ± 0.35.
The corresponding values for CCUCAGCAAUAUUACGCCGA are -3.12 ± 0.24 and -3.48 ± 0.27.
For the sequence GGAGAGCAAUAUUACGUUGA, under “37 °C”, the “self-splicing fitness (ln)” value was -1.97 ± 0.42.
Take AGCAAGCAAUAUUACGAUUC: the “self-splicing fitness (ln)” value is -2.18 ± 0.13 (30 °C) and -1.04 ± 0.15 (37 °C).
With UGUUAGCAAUAUUACGGGAG, the “self-splicing fitness (ln)” value is -3.62 ± 0.25 (30 °C) and -3.42 ± 0.25 (37 °C).
